Experimental data: patent US20250154231A1 (RQBIO COVID, published 2025)
Numbering of substitutions follows the chain as printed.

B1: Omi29 (antibody, V domains shown)
VH: QVQLVESGGGLVQPGGSLRLSCAASGLIVSRNYMSWVRQAPGKGLEWVSLIYAGGSTFYSDSVKGRFTISRHSSENTLFLQMNSLRAEDTAVYYCARDLVHYGMDVWGQGTTVTVSS
VL: NFMLTQPASVSGSPGQSITISCTGTSSDVGGYNYVSWYQQHPGKAPKLMIYDVSNRPSGVSNRFSGSNSGNTASLTISGLQAEDEADYYCSSYTSGSTWVFGGGTKLTVL
B2: Omi25 (antibody, V domains shown)
VH: QVQLVESGGGLVQPGRSLRLSCAASGFTFDDYAMHWVRQVPGKGLEWVSGISWNSGSIVYADFVKGRFTIARDNAKNSLFLQMNSLRAEDTALYYCAKSTALRHQYYYGMDVWGQGTTVTVSS
VL: AIQMTQSPSSLSASVGDRVTITCRTSQTISSYLNWYQQKPGKAPKLLIYDASSLQSGVPSRFSGSGYGTDFTLTISSLQPEDFATYFCQQSYNTPYAFGQGTKVEIK
B3: Omi24 (antibody, V domains shown)
VH: QVQLVESGAEVKKPGSSVKVSCKASGGTFSSHGVIWVRQAPGQGLEWMGGIIPIFPTANYAQKFQGRVTITADKPSNTAYMELSSLRSEDTAVYYCARARGEHDSVWGSFHYYFDYWGQGTLVTVSS
VL: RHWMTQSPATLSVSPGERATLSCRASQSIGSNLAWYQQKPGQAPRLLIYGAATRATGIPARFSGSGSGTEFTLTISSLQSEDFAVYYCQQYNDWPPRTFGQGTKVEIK
B4: Omi28 (antibody, V domains shown)
VH: EVQLVESGGGLVQPGGSLRLSCAASGVIVSSNYMSWVRQAPGKGLQWVSVIYSGGSTFYADSVKGRFTISRDNSKNTLYLQMNSLRAEDTAVYYCARDLLEAGGTDYWGQGTLVTVSS
VL: DVVMTQSPGTLSLSPGERATLSCRASQFIGSSYLAWYQQKPGQAPRLLIYGASNRATGVPDRFSGSGSGTDFTLTISRLEPEDFAVYYCQQYGSAPGTFGQGTKVEIK
B5: Omi23 (antibody, V domains shown)
VH: QVQLQESGPGLVKSSQTLSLTCTVSGDSISRGGYYWSWIRQHPGKGLEWIGSIYYSGSTYYNPSLKSRFTISVDTSKNQFSLKLSSVTAADTAVYHCAREIGFLDYWGQGTLVTVSS
VL: AIQMTQSPSSLSASVGDRVTITCRASQAISNSLAWYQQKPGKAPKLLLYAASTLESGVPSRFSGSGSGTDFTLTISSLQPEDFATYFCQQYYSTPPRTFGQGTKVDIK
B6: Omi16 (antibody, V domains shown)
VH: EVQLVESGGGVVQPGGSLRLSCAASGIIVSANYMTWVRQAPGKGLEWVSVIYPGGSTFYADSVKGRFTISRDNSKNTLYLQMNSLRVEDSAVYYCARDLELAGFNDFWGQGTLVTVSS
VL: DVVMTQSPGTLALSPGERATLSCRTSQSVSSNYLAWYQQKPGQAPRLLIYGASSRATGIPDRFSGSGSGTDFTLTISRLEPEDFAVYYCQQFGSSPRYTFGQGTKVEIK
B7: Omi17 (antibody, V domains shown)
VH: QVQLVESGGGVVQPGGSLRLSCAASGVTVSSNYMSWVRQAPGKGLEWVSVLYAGGSTFYADSVKGRFTISRDNSKNTLYLQMNSLRAEDTAAYYCARDLAVAGFLDSWGQGTLVTVSS
VL: B6 VL with V2I, A12S, T25A, S28G, N32I, L48V, I49L, F92Y
B8: Omi27 (antibody, V domains shown)
VH: EVQLLESGGGLVQPGGSLRLSCVASGLTVSSNYMSWVRQAPGKGLEWVSIIYPGGTTYYADSVKGRFTTSRDKSKNTLYLQMNSLRAEDTAVYYCARDLAVAGGMDVWGQGTTVTVSS
VL: EIVMTQSPSSLSASVGDRVTITCRASQGIGNDLGWYQQKPGKAPKVLIYAASNLQSGVPSRFSGSGSGTDFTLTISSLQPEDFATYYCLQDSNYPYTFGQGTKVEIK
B9: Omi26 (antibody, V domains shown)
VH: QVQLVQSGTEVKKPGASVKVSCKASDYTFTRFGIIWVRQAPGQGLEWMGQINPYNGNTDYAQKFQGRVTLTTDTSTNTAYMELRSLRSDDTAVYYCARSAGSPTGLDYWGQGTLVTVSS
VL: QSVVTQPPSVSEAPRQRVTISCSGSNSNIGNNAVNWYQQLPGKAPKLLVYYDDLLPSGVSDRFSGSKSGTSASLAISGLQSEDKADYYCAAWDDSLNALVFGGGTKLTVL

Target: T1, Omicron BA.1 RBD (SARS-CoV-2, UniProt P0DTC2 333-528)
T1 construct: domain: RBD
Assay: ELISA

Binder | binding result
B1 | binds
B2 | binds
B3 | binds
B4 | binds
B5 | binds
B6 | binds
B7 | binds
B8 | binds
B9 | binds
